{
  "source": "the supplement of paper PMC6757056",
  "parents": {"B1": {"name": "library; a variant is named by its letters at N, in order (parent)", "chain": "GCUGUCACCGGUGUAUUACCCUAGUGGUCGACCGGUCUGAUGAGUCUNNNNNNAGACGAAACAGC"}},
  "key": {"[1]": {"variants_of": "B1", "assay": "normalized RNA/DNA level with ligand (relative to sTRSVctl = 100) (log10 (% of sTRSVctl)); ligand: hypoxanthine (xanthine aptamer); higher = less ribozyme self-cleavage, higher mRNA level", "settings": "ligand concentration (+) RNA-Seq: 5 mM, HEK293T, reporter: mCherry (pCS4076), ligand present: yes", "in_short": "(§1)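 HEK293T cells received ligand, where used, 1 h before being transfected with 4 µg per 6-well well of library plasmids encoding reporter-linked ribozyme switches. After 72 h, RNA was extracted with EDTA and sequenced. RNA level was derived from RNA reads per DNA read, normalized to a spiked-in non-cleaving sequence or the top sequences, then scaled and log-transformed. Values were ×100 then log10, the top set was 25 sequences, and the minimum was 100 DNA reads.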"}, "[2]": {"variants_of": "B1", "assay": "normalized RNA/DNA level without ligand (relative to sTRSVctl = 100) (log10 (% of sTRSVctl)); ligand: hypoxanthine (xanthine aptamer); higher = less ribozyme self-cleavage, higher mRNA level", "settings": "HEK293T, reporter: mCherry (pCS4076), ligand present: no", "in_short": "as §1"}},
  "note": "± gives the standard deviation of the averaged measurements.",
  "data": [
    {"variant": "UUAUGC", "values": [
      {"measurement": "normalized RNA/DNA level with ligand (log10)", "setting": "[1]", "result": "1.94 ± 0.039"},
      {"measurement": "normalized RNA/DNA level without ligand (log10)", "setting": "[2]", "result": "1.874 ± 0.0042"}
    ]},
    {"variant": "CUAUGC", "values": [
      {"measurement": "normalized RNA/DNA level with ligand (log10)", "setting": "[1]", "result": "1.99 ± 0.044"},
      {"measurement": "normalized RNA/DNA level without ligand (log10)", "setting": "[2]", "result": "1.88 ± 0.076"}
    ]},
    {"variant": "CUAUGA", "values": [
      {"measurement": "normalized RNA/DNA level with ligand (log10)", "setting": "[1]", "result": "1.95 ± 0.036"},
      {"measurement": "normalized RNA/DNA level without ligand (log10)", "setting": "[2]", "result": "1.85 ± 0.042"}
    ]},
    {"variant": "CUAUGU", "values": [
      {"measurement": "normalized RNA/DNA level with ligand (log10)", "setting": "[1]", "result": "1.952 ± 0.0085"},
      {"measurement": "normalized RNA/DNA level without ligand (log10)", "setting": "[2]", "result": "1.88 ± 0.019"}
    ]},
    {"variant": "CUCUCU", "values": [
      {"measurement": "normalized RNA/DNA level with ligand (log10)", "setting": "[1]", "result": "1.89 ± 0.034"},
      {"measurement": "normalized RNA/DNA level without ligand (log10)", "setting": "[2]", "result": "1.904 ± 0.012"}
    ]},
    {"variant": "CUCUCA", "values": [
      {"measurement": "normalized RNA/DNA level with ligand (log10)", "setting": "[1]", "result": "1.96 ± 0.0068"},
      {"measurement": "normalized RNA/DNA level without ligand (log10)", "setting": "[2]", "result": "1.91 ± 0.027"}
    ]},
    {"variant": "CUGAAU", "values": [
      {"measurement": "normalized RNA/DNA level with ligand (log10)", "setting": "[1]", "result": "1.93 ± 0.062"},
      {"measurement": "normalized RNA/DNA level without ligand (log10)", "setting": "[2]", "result": "1.74 ± 0.062"}
    ]},
    {"variant": "CUGAAC", "values": [
      {"measurement": "normalized RNA/DNA level with ligand (log10)", "setting": "[1]", "result": "1.9 ± 0.066"},
      {"measurement": "normalized RNA/DNA level without ligand (log10)", "setting": "[2]", "result": "1.76 ± 0.019"}
    ]},
    {"variant": "GUCUGG", "values": [
      {"measurement": "normalized RNA/DNA level with ligand (log10)", "setting": "[1]", "result": "1.878 ± 0.016"},
      {"measurement": "normalized RNA/DNA level without ligand (log10)", "setting": "[2]", "result": "1.48 ± 0.0028"}
    ]},
    {"variant": "GUCUGA", "values": [
      {"measurement": "normalized RNA/DNA level with ligand (log10)", "setting": "[1]", "result": "1.954 ± 0.0094"},
      {"measurement": "normalized RNA/DNA level without ligand (log10)", "setting": "[2]", "result": "1.79 ± 0.03"}
    ]},
    {"variant": "GUCUGC", "values": [
      {"measurement": "normalized RNA/DNA level with ligand (log10)", "setting": "[1]", "result": "1.92 ± 0.038"},
      {"measurement": "normalized RNA/DNA level without ligand (log10)", "setting": "[2]", "result": "1.707 ± 0.0074"}
    ]},
    {"variant": "GUCUGU", "values": [
      {"measurement": "normalized RNA/DNA level with ligand (log10)", "setting": "[1]", "result": "1.948 ± 0.018"},
      {"measurement": "normalized RNA/DNA level without ligand (log10)", "setting": "[2]", "result": "1.841 ± 0.015"}
    ]},
    {"variant": "UUCGCU", "values": [
      {"measurement": "normalized RNA/DNA level with ligand (log10)", "setting": "[1]", "result": "1.983 ± 0.015"},
      {"measurement": "normalized RNA/DNA level without ligand (log10)", "setting": "[2]", "result": "1.87 ± 0.049"}
    ]},
    {"variant": "UUCGCG", "values": [
      {"measurement": "normalized RNA/DNA level with ligand (log10)", "setting": "[1]", "result": "1.9036 ± 0.0015"},
      {"measurement": "normalized RNA/DNA level without ligand (log10)", "setting": "[2]", "result": "1.84 ± 0.044"}
    ]},
    {"variant": "UUCGCC", "values": [
      {"measurement": "normalized RNA/DNA level with ligand (log10)", "setting": "[1]", "result": "1.95 ± 0.046"},
      {"measurement": "normalized RNA/DNA level without ligand (log10)", "setting": "[2]", "result": "1.856 ± 0.015"}
    ]},
    {"variant": "GUCUAU", "values": [
      {"measurement": "normalized RNA/DNA level with ligand (log10)", "setting": "[1]", "result": "1.94 ± 0.059"},
      {"measurement": "normalized RNA/DNA level without ligand (log10)", "setting": "[2]", "result": "1.82 ± 0.026"}
    ]},
    {"variant": "GUCUAC", "values": [
      {"measurement": "normalized RNA/DNA level with ligand (log10)", "setting": "[1]", "result": "1.94 ± 0.043"},
      {"measurement": "normalized RNA/DNA level without ligand (log10)", "setting": "[2]", "result": "1.8 ± 0.018"}
    ]},
    {"variant": "GUCGUG", "values": [
      {"measurement": "normalized RNA/DNA level with ligand (log10)", "setting": "[1]", "result": "1.86 ± 0.043"},
      {"measurement": "normalized RNA/DNA level without ligand (log10)", "setting": "[2]", "result": "1.37 ± 0.018"}
    ]},
    {"variant": "GUCGUC", "values": [
      {"measurement": "normalized RNA/DNA level with ligand (log10)", "setting": "[1]", "result": "2.03 ± 0.088"},
      {"measurement": "normalized RNA/DNA level without ligand (log10)", "setting": "[2]", "result": "1.93 ± 0.058"}
    ]},
    {"variant": "GUCGUA", "values": [
      {"measurement": "normalized RNA/DNA level with ligand (log10)", "setting": "[1]", "result": "1.91 ± 0.088"},
      {"measurement": "normalized RNA/DNA level without ligand (log10)", "setting": "[2]", "result": "1.79 ± 0.073"}
    ]},
    {"variant": "GUCGUU", "values": [
      {"measurement": "normalized RNA/DNA level with ligand (log10)", "setting": "[1]", "result": "1.97 ± 0.057"},
      {"measurement": "normalized RNA/DNA level without ligand (log10)", "setting": "[2]", "result": "1.89 ± 0.032"}
    ]},
    {"variant": "UUCCUA", "values": [
      {"measurement": "normalized RNA/DNA level with ligand (log10)", "setting": "[1]", "result": "1.94 ± 0.016"},
      {"measurement": "normalized RNA/DNA level without ligand (log10)", "setting": "[2]", "result": "1.89 ± 0.0066"}
    ]},
    {"variant": "UUCCUU", "values": [
      {"measurement": "normalized RNA/DNA level with ligand (log10)", "setting": "[1]", "result": "1.92 ± 0.081"},
      {"measurement": "normalized RNA/DNA level without ligand (log10)", "setting": "[2]", "result": "1.891 ± 0.0051"}
    ]},
    {"variant": "UUCCUC", "values": [
      {"measurement": "normalized RNA/DNA level with ligand (log10)", "setting": "[1]", "result": "1.97 ± 0.038"},
      {"measurement": "normalized RNA/DNA level without ligand (log10)", "setting": "[2]", "result": "2.04 ± 0.025"}
    ]},
    {"variant": "UUCUCU", "values": [
      {"measurement": "normalized RNA/DNA level with ligand (log10)", "setting": "[1]", "result": "1.99 ± 0.084"},
      {"measurement": "normalized RNA/DNA level without ligand (log10)", "setting": "[2]", "result": "1.89 ± 0.051"}
    ]},
    {"variant": "UUCUCC", "values": [
      {"measurement": "normalized RNA/DNA level with ligand (log10)", "setting": "[1]", "result": "1.97 ± 0.072"},
      {"measurement": "normalized RNA/DNA level without ligand (log10)", "setting": "[2]", "result": "1.99 ± 0.082"}
    ]},
    {"variant": "UUCUCA", "values": [
      {"measurement": "normalized RNA/DNA level with ligand (log10)", "setting": "[1]", "result": "1.98 ± 0.033"},
      {"measurement": "normalized RNA/DNA level without ligand (log10)", "setting": "[2]", "result": "1.918 ± 0.013"}
    ]},
    {"variant": "UUGAAU", "values": [
      {"measurement": "normalized RNA/DNA level with ligand (log10)", "setting": "[1]", "result": "1.95 ± 0.03"},
      {"measurement": "normalized RNA/DNA level without ligand (log10)", "setting": "[2]", "result": "1.8 ± 0.031"}
    ]},
    {"variant": "UUGAAC", "values": [
      {"measurement": "normalized RNA/DNA level with ligand (log10)", "setting": "[1]", "result": "1.92 ± 0.052"},
      {"measurement": "normalized RNA/DNA level without ligand (log10)", "setting": "[2]", "result": "1.855 ± 0.01"}
    ]}
  ]
}
